Results published in patent US8772236B2, “Truncated cystine-knot proteins” (Pepscan Systems B.V., priority 2009, dated 2014).
Residue numbers refer to the chain shown, from its start. Several values for one entry are separate records, joined by “and”; a condition that tells them apart may be missing. Identical values can stand only once.

Assays:
Avastin™ = assay: Competition ELISA: inhibition of Avastin-binding to surface-immobilized humVEGF1-165 by peptides
[1] = biological target: T1, ratVEGF1-165 homodimer (recombinant full-length ratVEGF) (Rattus norvegicus, UniProt P16612); assay: Binding of rat-antisera in ELISA to ratVEGF1-165 homodimer; conditions: coat ratVEGF1-165 homodimer; Avastin
T1 construct: humanVEGF), and D) ratVEGF1-165 homodimer (recombinant full-length ratVEGF); For
T1 sequence (P16612 27-165 isoform P16612-2 limits assumed): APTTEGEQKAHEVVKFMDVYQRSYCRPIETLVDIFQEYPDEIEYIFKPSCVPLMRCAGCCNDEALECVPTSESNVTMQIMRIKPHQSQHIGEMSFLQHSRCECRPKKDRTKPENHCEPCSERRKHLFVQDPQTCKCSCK
Protocol: Therefore, polystyrene 96-well plates (Greiner, Germany) were treated with 100 μL/well of 0.2% glutaric dialdehyde in phosphate-buffer (0.1 M, pH=5) for four hours at room temperature while shaking, following by washing (3×10 minutes) with phosphate-buffer (0.1 M, pH=8). Then, the wells were coated with 100 μL/well of a 1 μg/mL solution of oxid-humVEGF26-104/humVEGF1-165 in phosphate-buffer (0.1 M, pH=8) for three hours at 37° C., followed by overnight standing at room temperature. After washing with 1% TWEEN®-80 (3×), the plates were incubated with the antibody at various different dilutions in horse serum (4% in PBS/1% TWEEN®-80/3% NaCl), starting with 1/10 dilution in the first well and three-fold dilution steps in subsequent wells. Incubation was performed for one hour at 37° C., followed by washing with 1% TWEEN®-80 (3×). Then, the plates were incubated with 100 μL/well of peroxidase-labeled Goat-anti-rat serum (1/1000 dilution in 4% horse serum, see above) for one hour at 25° C., followed by washing with 1% TWEEN®-80 (4×). […] OD405 nm-values were measured after 45 minutes standing at room temperature in the dark.
(§3) Titers were calculated by determining the serum dilution for which OD405 nm is equal to 4×OD405 nm that of a buffer solution (see “ELISA-binding studies, example 1B”). […]

humVEGF1-165 = biological target: T2, humVEGF1-165 (Homo sapiens, UniProt P15692); assay: ELISA titer determination of antisera on surface-immobilized humVEGF1-165 after immunization with oxid-humVEGF26-104; type: binding; conditions: female Wistar rats and female Balb/C mice
T2 sequence (P15692 27-191 isoform P15692-4 limits assumed): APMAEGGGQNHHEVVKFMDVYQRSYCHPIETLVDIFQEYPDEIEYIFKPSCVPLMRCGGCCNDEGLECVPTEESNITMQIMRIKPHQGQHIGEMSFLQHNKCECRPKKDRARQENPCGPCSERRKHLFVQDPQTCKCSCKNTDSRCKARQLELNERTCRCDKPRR
Protocol: Therefore, polystyrene 96-well plates (Greiner, Germany) were treated with 100 μL/well of 0.2% glutaric dialdehyde in phosphate-buffer (0.1 M, pH=5) for four hours at room temperature while shaking, following by washing (3×10 minutes) with phosphate-buffer (0.1 M, pH=8). Then, the wells were coated with 100 μL/well of a 1 μg/mL solution of oxid-humVEGF26-104/humVEGF1-165 in phosphate-buffer (0.1 M, pH=8) for three hours at 37° C., followed by overnight standing at room temperature. After washing with 1% TWEEN®-80 (3×), the plates were incubated with the antibody at various different dilutions in horse serum (4% in PBS/1% TWEEN®-80/3% NaCl), starting with 1/10 dilution in the first well and three-fold dilution steps in subsequent wells. […] OD405 nm-values were measured after 45 minutes standing at room temperature in the dark. […]
Wistar rats: Female Wistar rats were immunized with anti-humVEGF26-104 at day 0 with 400 μL (intramuscular+subcutaneous, 200 μL each) of a 375 μg/mL solution of humVEGF26-104 in PBS/CoVaccine 1:1 (v/v) (PBS=Phosphate-Buffered Saline), followed by a booster (same quantity and concentration) at two and four weeks. […]
as §3

[2] = system: BaF3 cells (murine pre-B lymphocytes stable expressing human humVEGF-Receptor 2); assay: BaF3-cell proliferation in the presence of oxid-humVEGF26-104; type: cell-based
Protocol: FIG. 8. Proliferation data from BaF3/cell assay with humVEGF26-104 at various concentration (0.01-20 ng/mL), either in the absence and presence of humVEGF1-165. Level of proliferation observed at humVEGF1-165=1.2 ng/mL was set by default to 100%, other proliferation levels were expressed as % of default.
The cells that are used in the assay are murine pre-B lymphocytes stable expressing human (h) humVEGF-Receptor 2 (Makinen et al., 2001). These recombinant cells survive/proliferate only in the presence of IL-3 (natural cytokine required for the survival of the parental cells) or humVEGF. […]
Two days later, cell proliferation was measured by adding WST-1 (Roche #1644807). […]
The WST-1 assay is based on the measurement of the mitochondrial succinate dehydrogenase activity. […] A tetrazolium salt (WST-1) is used as substrate since it generates a soluble dark metabolic (formazon) through the action of the enzyme, which can then be quantified by measuring the absorbance (450 nm) in an ELISA reader. The higher the absorbance measured in the assay, the stronger the proliferation. Absorbance is positively correlated with proliferation. […]
In order to check whether oxid-humVEGF26-104, the truncated form of humVEGF1-165, is also able to induce BaF3-cell proliferation, we measured cell proliferation in the presence of varying amounts of oxid-humVEGF26-104 (0.01-20 ng/mL). […]

[3] = Immunization study in Wistar rats with oxid-ratVEGF26-104 and oxid-humVEGF26-104; type: in vivo; conditions: 250 micrograms, CoVaccine, days 0, 14, 28, 42; bled day 56
From the text: This example describes the results of an immunization study in male Whistar rats with both oxid-hum-VEGF26-104 and oxid-ratVEGF26-104 with an intact cystine-knot fold (oxid-form). […] The use of truncated VEGF as described in this patent can thus be used to bypass immune tolerance to “self proteins,” like, for example, the full-length homodimeric VEGF protein in this particular case.
A total of four Wistar rats (2×2) were immunized on day 0 with 250 micrograms each of either oxid-ratVEGF26-104 (two rats) or oxid-humVEGF26-104 (two rats) using CoVaccine as adjuvant, followed by booster inoculations at day 14, 28, and 42. The rats were finally bled at day 56, and the sera were analyzed for antibody titers against ratVEGF1-165, humVEGF1-165, oxid-ratVEGF26-104, and oxid-humVEGF26-104.

[4] = system: humTGFB2trunc-1, humTGFB2trunc-2, humVEGFtrunc; assay: ELISA binding of 9wpv-rat sera to humTGFB2trunc-1, humTGFB2trunc-2 and humVEGFtrunc; parameters: species or system human
From the text: (§1) FIG. 21. (Panel A) Antibody titers in ELISA for 9wpv-rat sera (1 and 2+pre-immune sera) that were elicited via immunization with oxid-humTGFB215-111/Δ49-77-humVEGF62-67. Titers were defined as the −10 log [conc] at which the OD in ELISA is equal to 4× the background signal. (Panel B) Antibody binding in ELISA of 9wpv-rat sera to surface-immobilized 1) humTGFB2trunc-1 (with VEGF b2-loop), 2) humTGFB2trunc-2 (with sequence PGGSPA replacing native humTGF-B2 b2-loop), and 3) humVEGFtrunc.
(§2) Each animal received four inoculations (0, 2, 4, and 7.5 wks) with 2×450+2×130 microgram of oxid-humTGFB215-111/Δ49-77-humVEGF62-67.

full-length TGF-B2 = biological target: T3, full-length TGF-B2 (Homo sapiens, UniProt P61812); assay: ELISA titers of rat antisera to full-length TGF-B2 after immunization with the chimeric peptide; type: binding
T3 sequence (P61812 303-414 limits assumed): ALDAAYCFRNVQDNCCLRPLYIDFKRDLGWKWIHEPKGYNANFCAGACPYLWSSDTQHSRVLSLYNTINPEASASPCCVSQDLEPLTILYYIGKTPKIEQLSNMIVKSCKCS
From the text: as §1, §2

(cyclic) peptide-mimic derived from the beta3-loop of humVEGF: backbone-cyclized peptide covering only the β5-turn-β6 loop of humVEGF (humVEGF74-98) (SNITMQIMRIKPHQGQHIGEMSFLQ; cyclised or stapled) [reference compound]
fold less active in binding to Avastin™ (Avastin™): > 10,000 fold

Avastin: humanized anti-humVEGF monoclonal antibody (Genentech)
titer endblood (mAb, as concentration) [1]: <1000 ng/mL

B1: oxid-humVEGF26-104: truncated human VEGF residues 26-104, N-acetylated, C-amidated, cystine-knot folded (SEQ ID NO:27) (peptide)
chain: CHPIETLVDIFQEYPDEIEYIFKPSAVPLMRCGGACNDEGLECVPTEESNITMQIMRIKPHQGQHIGEMSFLQHNKCEC
modifications: N-acetyl, C-amide, cystine-knot folded; VEGF26-104
difference in affinity (as compared to humVEGF1-165) to Avastin™ (Avastin™; 10 ng/mL Avastin): less than five | antibody generation via immunization (not conjugated to a carrier protein) (humVEGF1-165): high levels of antibodies were successfully generated | effect on the proliferating ability of humVEGF1-165 ([2]; 0.01-20 ng/mL in the presence of humVEGF1-165=1.2 ng/mL): nor any affect on the proliferating ability of humVEGF1-165 | activity in BaF3-cell proliferation ([2]; 0.01-20 ng/mL, absence of humVEGF1-165): no activity

B2: oxid-ratVEGF26-104: truncated rat VEGF residues 26-104, acetylated and amidated, cystine-knot folded (SEQ ID NO:30) (peptide)
chain: B1 chain with H2R, G33A, G40A, E47S, I51V, G63S, N75S, K76R
modifications: N-acetyl, C-amide, cystine-knot folded; ratVEGF26-104
immunogenicity in rats compared to oxid-humVEGF26-104 [3]: equally immunogenic and potent as compared to oxid-humVEGF26-104

B3: oxid-humTGFB215-111/Δ49-77-humVEGF62-67: chimeric truncated human TGFB2 residues 15-111 with beta2-loop replaced by humVEGF 62-67 (SEQ ID NO:35) (peptide)
chain: CALRPLYIDFKRDLGWKWIHEPKGYNANFCAGACNDEGLECVSQDLEPLTILYYIGKTPKIEQLSNMIVKSCKC
modifications: oxidized; humTGFB2-humVEGF
specificity of antibodies in the sera (TGFB2-part versus VEGF-part) [4]: majority of antibodies in the sera were directed towards the TGFB2-part of the peptide | titer in ELISA to full-length TGF-B2, pre-immune sera (full-length TGF-B2; pre-immune sera of the two rats): ≤ 2.1 | cross-reactivity of elicited antibodies with native humTGF-B2 (full-length TGF-B2; rat antisera): fully cross-reactive with the native protein humTGF-B2 | titer in ELISA to full-length TGF-B2, nine weeks post vaccination antisera (full-length TGF-B2; two rats, inoculations at 0, 2, 4, 7.5 wks, titer = -10log[conc] at which OD = 4x background): 3.8 and 4.1
